From IntAct's records for PubMed 31515488 come the findings set out here.

The labels stand for the following.
B1: E3 ubiquitin-protein ligase MARCHF5 (Homo sapiens), Q9NX47 (parent)
chain: MPDQALQQMLDRSCWVCFATDEDDRTAEWVRPCRCRGSTKWVHQACLQRWVDEKQRGNSTARVACPQCNAEYLIVFPKLGPVVYVLDLADRLISKACPFAAAGIMVGSIYWTAVTYGAVTVMQVVGHKEGLDVMERADPLFLLIGLPTIPVMLILGKMIRWEDYVLRLWRKYSNKLQILNSIFPGIGCPVPRIPAEANPLADHVSATRILCGALVFPTIATIVGKLMFSSVNSNLQRTILGGIAFVAIKGAFKVYFKQQQYLRQAHRKILNYPEQEEA
partner: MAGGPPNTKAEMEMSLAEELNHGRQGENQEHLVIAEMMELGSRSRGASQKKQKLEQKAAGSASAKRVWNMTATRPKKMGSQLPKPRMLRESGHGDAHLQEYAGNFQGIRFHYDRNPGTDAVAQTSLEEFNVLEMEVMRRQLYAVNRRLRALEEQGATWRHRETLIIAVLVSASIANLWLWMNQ
B2: Fibronectin type III and SPRY domain-containing protein 2 (Homo sapiens), A1L4K1 (parent)
chain: MEEESGEELGLDRSTPKDFHFYHMDLYDSEDRLHLFPEENTRMRKVVQAEMANESRGAGDGKAQRDLQEEVDELVHLYGLEDDHELGDEFVDENIPRTGVSEYPPYMMKRRDPAREQRDWRLSGEAAEAEDLGFGGWGSAGQCQDLREAYRYTHGRASEEYECYVIPEEEDEEEAADVFCVTCKTPIRAFQKVFDEHKEHEVIPLNEALESAKDEIHKNMYKLEKQIIEMENFANHLEEVFITVEENFGKQEQNFESHYNEILETLAQKYEEKIQALGEKKKEKLEALYGQLVSCGENLDTCKELMETIEEMCHEEKVDFIKDAVAMADRLGKFLKTKTDVEISAQPEFEDQTLDFSDVEQLMGSINTIPAPSAPVINPQVPNSATGSSVRVCWSLYSDDTVESYQLSYRPVQDSSPGTDQAEFTVTVKETYCSVTNLVPNTQYEFWVTAHNRAGPSPSSERAVYMTAPSPPIIKTKEIRSCEEAVLICWESGNLNPVDSYTVELTQAESPEASGVTESVVGIPTCESVVQLQPGRSYIIYVRALNMGGPSVRSEPATVHTIGSYFRLNKDTCHPWLTISEDGLTAVRSERRTPARELSPSDTHFTRCVAVMGNLIPVRGHHYWEVEVDEHLDYRVGVAFADVRKQEDLGANCLSWCMRHTFASSRHKYEFLHNRTTPDIRITVPPKKIGILLDYEHSKLSFFNVDLSQHLYTFSCQLHEFVHPCFSLEKPGCLKVHNGISMPKHVTFY
B3: Protein DDI1 homolog 1 (Homo sapiens), Q8WTU0 (parent)
chain: MLITVYCVRRDLSEVTFSLQVSPDFELRNFKVLCEAESRVPVEEIQIIHMERLLIEDHCSLGSYGLKDGDIVVLLQKDNVGPRAPGRAPNQPRVDFSGIAVPGTSSSRPQHPGQQQQRTPAAQRSQGLASGEKVAGLQGLGSPALIRSMLLSNPHDLSLLKERNPPLAEALLSGSLETFSQVLMEQQREKALREQERLRLYTADPLDREAQAKIEEEIRQQNIEENMNIAIEEAPESFGQVTMLYINCKVNGHPLKAFVDSGAQMTIMSQACAERCNIMRLVDRRWAGVAKGVGTQRIIGRVHLAQIQIEGDFLQCSFSILEDQPMDMLLGLDMLRRHQCSIDLKKNVLVIGTTGTQTYFLPEGELPLCSRMVSGQDESSDKEITHSVMDSGRKEH
partner: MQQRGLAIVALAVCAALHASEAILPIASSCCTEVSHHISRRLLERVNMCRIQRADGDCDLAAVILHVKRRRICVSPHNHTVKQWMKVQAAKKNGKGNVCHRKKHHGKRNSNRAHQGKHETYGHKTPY
B4: Zinc finger CCHC domain-containing protein 10 (Homo sapiens), Q8TBK6 (parent)
chain: MATPMHRLIARRQAFDTELQPVKTFWILIQPSIVISEANKQHVRCQKCLEFGHWTYECTGKRKYLHRPSRTAELKKALKEKENRLLLQQSIGETNVERKAKKKRSKSVTSSSSSSSDSSASDSSSESEETSTSSSSEDSDTDESSSSSSSSASSTTSSSSSDSDSDSSSSSSSSTSTDSSSDDEPPKKKKKK
partner: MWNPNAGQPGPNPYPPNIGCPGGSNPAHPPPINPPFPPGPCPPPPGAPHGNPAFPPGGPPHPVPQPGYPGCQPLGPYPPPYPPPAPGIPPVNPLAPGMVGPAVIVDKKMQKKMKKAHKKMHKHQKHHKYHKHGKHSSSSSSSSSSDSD
B5: Four and a half LIM domains protein 5 (Homo sapiens), Q5TD97 (parent)
chain: MTTAHFYCQYCTASLLGKKYVLKDDSPYCVTCYDRVFSNYCEECKKPIESDSKDLCYKDRHWHEGCFKCTKCNHSLVEKPFAAKDERLLCTECYSNECSSKCFHCKRTIMPGSRKMEFKGNYWHETCFVCENCRQPIGTKPLISKESGNYCVPCFEKEFAHYCNFCKKVITSGGITFCDQLWHKECFLCSGCRKDLCEEQFMSRDDYPFCVDCYNHLYANKCVACSKPISGLTGAKFICFQDSQWHSECFNCGKCSVSLVGKGFLTQNKEIFCQKCGSGMDTDI
partner: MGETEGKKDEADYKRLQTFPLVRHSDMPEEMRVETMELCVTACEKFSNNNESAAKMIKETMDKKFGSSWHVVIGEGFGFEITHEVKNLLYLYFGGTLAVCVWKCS

The variants in one assay derive from B1. The following applies: with fate1_human FATE1, Q969F0.
Consider D202N, for which the “effect of a mutation on the interaction” value is given as “with no effect”.

A further assay covers variants of B2. The settings on record: with cor1a_human CORO1A.
Consider E720K, for which the “effect of a mutation on the interaction” value is reported as “with no effect”.
On to K333T, for which the “effect of a mutation on the interaction” value is “with no effect”.

In another assay the parent is B3. The following applies: with ccl28_human CCL28, Q9NRJ3.
On to G136S, for which the “effect of a mutation on the interaction” value is recorded as “with no effect”.
Same read-out and setting: as for N228T, the entry is “with no effect”.
Still for that read-out and setting: as for D323N, the entry is “with no effect”; as for R87C, “with no effect”.
Still for that read-out and setting: as for S63A, the entry is “with no effect”; as for R208G, “disrupting interaction strength”.

The variants in the next assay derive from B4. The following applies: with prr13_human PRR13, Q9NZ81.
Consider S153P, for which the “effect of a mutation on the interaction” value is recorded as “with no effect”.

Variants of B5 are the subject of another assay. The settings on record: with dnal4_human DNAL4, O96015.
For the variant R60W, the “effect of a mutation on the interaction” value is “with no effect”.
